This data set concerns the target T1, gulono-γ-lactone oxidase (Rattus norvegicus, UniProt P10867, I85V).
T1 construct: His tag (pET30a fusion); made in house; host or cells: E. coli Rosetta(DE3), pET30a
T1 sequence (P10867 1-440 I85V): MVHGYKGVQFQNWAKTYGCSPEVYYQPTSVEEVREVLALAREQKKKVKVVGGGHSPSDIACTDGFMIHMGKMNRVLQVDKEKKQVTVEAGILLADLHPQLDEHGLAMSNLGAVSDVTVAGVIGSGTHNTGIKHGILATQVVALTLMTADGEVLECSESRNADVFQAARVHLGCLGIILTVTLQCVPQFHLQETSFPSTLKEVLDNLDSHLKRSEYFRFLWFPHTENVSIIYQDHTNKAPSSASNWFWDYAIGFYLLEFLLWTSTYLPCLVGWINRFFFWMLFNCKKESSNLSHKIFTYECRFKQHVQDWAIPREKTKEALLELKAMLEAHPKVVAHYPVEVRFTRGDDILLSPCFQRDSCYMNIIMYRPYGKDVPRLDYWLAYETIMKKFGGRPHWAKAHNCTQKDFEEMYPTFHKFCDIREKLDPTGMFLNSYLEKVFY
Description: GLO assay, ascorbic acid from L-gulono-γ-lactone. It counts as biochemical. The note with it: His-Bind purified from E. coli; 2.5 mM L-gulono-γ-lactone. Here is the method:
GLO activity was assayed according to the procedure described by Nishikimi (Methods in Enzymology, 62:24-30 (1979)). The assay mixture contained, in 1 mL, 50 mM potassium phosphate buffer, pH 7.5, 2.5 mM L-gulono-γ-lactone, 1 mM EDTA, and enzyme. The reaction was initiated by the addition of either substrate or enzyme, and the mixture was incubated with shaking in air for 15 minutes at 37° C. The reaction was stopped by the addition of 0.1 mL 50% trichloroacetic acid, and the precipitated protein was removed by centrifugation. The product ascorbic acid was detected by the method described in Example 9. Briefly, 0.956 mL 2,2′-dipyridyl reagent was added to 0.15 mL of the supernatant solution, and the reaction mixture was incubated at 25° C. for 15 minutes. After 15 minutes, the sample was centrifuged to remove any precipitate, and the absorbance was read at 525 nm. The 2,2′-dipyridyl reagent contained 0.056 mL ortho-phosphoric acid (85%), 0.75 mL 0.5% 2,2′-dipyridyl (prepared in hot H2O), and 0.15 mL 1% FeCl3 (in H2O). Standards of ascorbic acid (1.0 μg to 10 μg) were run in parallel with the biological samples for a standard curve. One unit is defined as the quantity that catalyzes the formation of 1 nmol of L-ascorbic acid in 1 minute under the conditions described above. Specific activity is expressed as units per mg of protein ([…]/min/mg).

B1: GLO: gulono-γ-lactone oxidase, rat glo expressed from pET30a in E. coli Rosetta(DE3), His-Bind purified (protein, UniProt P10867 2-440, looked up)
L-gulonolactone oxidase: VHGYKGVQFQNWAKTYGCSPEVYYQPTSVEEVREVLALAREQKKKVKVVGGGHSPSDIACTDGFMIHMGKMNRVLQVDKEKKQITVEAGILLADLHPQLDEHGLAMSNLGAVSDVTVAGVIGSGTHNTGIKHGILATQVVALTLMTADGEVLECSESRNADVFQAARVHLGCLGIILTVTLQCVPQFHLQETSFPSTLKEVLDNLDSHLKRSEYFRFLWFPHTENVSIIYQDHTNKAPSSASNWFWDYAIGFYLLEFLLWTSTYLPCLVGWINRFFFWMLFNCKKESSNLSHKIFTYECRFKQHVQDWAIPREKTKEALLELKAMLEAHPKVVAHYPVEVRFTRGDDILLSPCFQRDSCYMNIIMYRPYGKDVPRLDYWLAYETIMKKFGGRPHWAKAHNCTQKDFEEMYPTFHKFCDIREKLDPTGMFLNSYLEKVFY
modifications: His tag
On to B1, for which the “Specific Activity (purified protein)” value was 0.926 nmol/min/mg.

The values above are taken from patent US20080187984A1, “Myo-inositol oxygenases” (Cargill, Incorporated, priority 2001, published 2008).
